# Literature values in PMC8666702 (Hypertension (Dallas, Tex. : 1979), 2021).
# Tests used:
# [1] = tested on: insulin degrading enzyme (IDE)
substance,measurement,setting,value
atrial natriuretic peptide [ANP],Degradation by neprilysin (NEP),neprilysin (NEP),rapid degradation
same,Degradation by insulin degrading enzyme (IDE),[1],rapid degradation
